Results on 1 molecule are retold here after patent US6518063 (University of Texas, dated 1998).

Assay [1] deals with T1, ΔN19.1.1 deletion mutant of Osf2 (His-tagged) (mouse, UniProt Q08775 99-607).
T1 construct: counted with Met69 of the cDNA as residue 1
The assay is described as follows: EMSA with labeled OSE2 oligonucleotide, with or without Cbfβ. Background: Mobility shift assays separate free from complexed probe on a gel.
Method: (§1) DNA-binding assays were performed with 5 fmol of ^32P-labeled double-stranded OSE2 oligonucleotides, in a buffer containing 20 mM Tris-HCl, pH 8.0, 10 mM NaCl, 3 mM EGTA, 0.05% NP-40, 5 mM DTT, and 2 μg of poly (dI.dC).poly (dI.dC), with equivalent amounts of wild type or mutant proteins. […] Typically, 100 ng of fusion protein bound to glutathione-agarose beads was used for each assay, while the amount of labeled protein in the assay was determined using fluorography.

Assay [2] addresses T2, histidine-tagged recombinant Osf2/Cbfa1 polypeptide (His-Osf2/Cbfa1) (mouse, UniProt Q08775 80-607).
T2 construct: Bacterially expressed, enriched on Ni resin; also called His-tagged Osf2/Cbfa1 polypeptide
The description is as above.
Method: as §1

T1 sequence (Q08775 other isoform, or with tags, fused parts or gaps mutant): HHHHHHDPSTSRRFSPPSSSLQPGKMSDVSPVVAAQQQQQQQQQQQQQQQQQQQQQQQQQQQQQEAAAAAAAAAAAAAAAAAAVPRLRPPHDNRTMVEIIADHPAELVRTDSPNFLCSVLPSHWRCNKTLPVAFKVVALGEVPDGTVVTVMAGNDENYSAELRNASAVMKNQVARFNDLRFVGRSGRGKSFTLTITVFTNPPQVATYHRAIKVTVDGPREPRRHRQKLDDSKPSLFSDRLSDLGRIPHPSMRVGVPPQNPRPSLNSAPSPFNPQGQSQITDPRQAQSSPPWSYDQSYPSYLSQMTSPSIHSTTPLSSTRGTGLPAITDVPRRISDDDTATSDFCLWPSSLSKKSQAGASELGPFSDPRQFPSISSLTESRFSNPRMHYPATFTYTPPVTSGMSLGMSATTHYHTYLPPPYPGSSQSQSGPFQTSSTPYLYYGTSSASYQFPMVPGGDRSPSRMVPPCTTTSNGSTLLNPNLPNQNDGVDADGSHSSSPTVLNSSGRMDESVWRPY
T2 sequence (Q08775 other isoform, or with tags, fused parts or gaps): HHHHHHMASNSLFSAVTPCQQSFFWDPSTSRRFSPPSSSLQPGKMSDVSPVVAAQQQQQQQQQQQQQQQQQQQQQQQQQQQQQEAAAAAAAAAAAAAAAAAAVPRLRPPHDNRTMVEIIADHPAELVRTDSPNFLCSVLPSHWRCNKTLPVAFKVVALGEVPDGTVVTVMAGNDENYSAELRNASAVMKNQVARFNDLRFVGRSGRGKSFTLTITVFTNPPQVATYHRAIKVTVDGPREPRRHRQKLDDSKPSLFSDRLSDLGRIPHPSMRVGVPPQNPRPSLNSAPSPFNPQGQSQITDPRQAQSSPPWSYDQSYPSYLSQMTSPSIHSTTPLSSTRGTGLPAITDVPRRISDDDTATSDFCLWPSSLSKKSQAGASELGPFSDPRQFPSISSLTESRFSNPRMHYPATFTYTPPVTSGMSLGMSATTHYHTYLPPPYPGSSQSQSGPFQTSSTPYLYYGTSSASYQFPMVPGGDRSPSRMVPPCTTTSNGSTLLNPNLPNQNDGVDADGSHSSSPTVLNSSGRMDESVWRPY

B1: histidine-tagged Cbfβ (other)
chain: HHHHHHMPRVVPDQRSKFENEEFFRKLSRECEIKYTGFRDRPHEERQTRFQNACRDGRSEIAFVATGTNLSLQFFPASWQGEQRQTPSREYVDLEREAGKVYLKAPMILNGVCVIWKGWIDLHRLDGMGCLEFDEERAQQEDALAQQAFEEARRRTREFEDRDRSHREEMEARRQQDPSPGSNLGGGDDLKLR
notes: Recombinant Cbfβ added in EMSA; also called Cbf]3
For B1, the binding result in assay [1] and in assay [2] was “no binding” throughout.
